From paper PMC12364344 come the findings set out here.

In the assay the target is His6-BacA_(F134R), purified (Asticcacaulis biprosthecum). Nature of the assay: SEC; 500 µl of purified proteins from the polymerization assay on Superdex 200 Increase 10/300 GL, column calibrated with standard proteins.

A word on the stoichiometry N: it is a count of units in the complex or per binding partner. Substance “His6-BacA_(F134R), purified (natural protein)” registered a stoichiometry N of 2.
